The record followed here is publication PMC7680125.

For data set [1], the target named is Isw1 (ISW1a catalytic subunit);Ioc3 dcHLB del496-565 (Saccharomyces cerevisiae (BY4742?);Saccharomyces cerevisiae (BY4742)) (UniProt P38144+P43596). In words: EMSA. The note with it: 35 mM Na-HEPES pH 7.8, 5 mM MgCl2, 0.1 mM EGTA, 0.02 M EDTA (so in the source), 70 mM NaCl, 0.1 mg/ml BSA, 5-8% glycerol, 40 uM 2-mercaptoethanol, 30 C, 30 min ….
Data set [2] concerns the target Isw1 (ISW1a catalytic subunit);Ioc3 (Saccharomyces cerevisiae (BY4742?);Saccharomyces cerevisiae (BY4742)) (UniProt P38144+P43596). Put plainly: EMSA. Conditions: 35 mM Na-HEPES pH 7.8, 5 mM MgCl2, 0.1 mM EGTA, 0.02 M EDTA (so in the source), 70 mM NaCl, 0.1 mg/ml BSA, 5-8% glycerol, 40 uM 2-mercaptoethanol, 30 C, 30 min ….

Regarding 0N70 mononucleosome, the Kd amounted to 32.5 nM in data set [1] and 30.3 nM in data set [2].

Turning to “CACCGGCACGGTCGCTGTTCGATACGTGCGCCGGACGTATATATCTGACACGTGCCTGGCGACTAGGGAGCGATCCCCTTGGCGGTTAAAACGCGGGGGACAGCGCGTACGTGCGTTTAAGCGGTGCTAGAGCTGTCTACGACCAATTGAGCGGCCTCGGCACCGGGAATCTCCAGGGCGGCCGCGTATAGGCTCCGGATCCTCTAGAGTCGACCTCGAAACGGGTACCCCAGGGACTTGAAGTAATAAGGACGGAGGGCCTCTTTCAACATCGATGCACGGTGGTTAGCCTTGGATTGCGCTCTACCGAGCGCTAAGCGTACTTAGAAGCGCGAGCGACGACTTCACACGGTAGGTGGGCGCGCGAACTGGGCAGATCC (double strand) [30(N1)50(N2)6 dinucleosome]”, the Kd is 28 nM in data set [1] and 10.2 nM in data set [2].

As for “CCGGACGTATATATCTGACACGTGCCTGGCGACTAGGGAGCGATCCCCTTGGCGGTTAAAACGCGGGGGACAGCGCGTACGTGCGTTTAAGCGGTGCTAGAGCTGTCTACGACCAATTGAGCGGCCTCGGCACCGGGAATCTCCAGGGCGGCCGCGTATAGGCTCCGGATCCTCTAGAGTCGACCTCGAAACGGGTACCCCAGGGACTTGAAGTAATAAGGACGGAGGGCCTCTTTCAACATCGATGCACGGTGGTTAGCCTTGGATTGCGCTCTACCGAGCGCTAAGCGTACTTAGAAGCGCGAGCGACGACTTCACACGGTAGGTGGGCGCGCGAACTGGGCAGATCC (double strand) [0(N1)50(N2)6 dinucleosome]”, the Kd in data set [1] is 34.5 nM; in data set [2] it was 45.9 nM.

As for “TCGGAACGCTATCCGACTGGCACCGGCACGGTCGCTGTTCGATACGTGCGCCGGACGTATATATCTGACACGTGCCTGGCGACTAGGGAGCGATCCCCTTGGCGGTTAAAACGCGGGGGACAGCGCGTACGTGCGTTTAAGCGGTGCTAGAGCTGTCTACGACCAATTGAGCGGCCTCGGCACCGGGAATCTCCAGGGCGGCCGCGTATAGGCTCCGGATCCTCTAGAGTCGACCTCGAAACGGGTACCCCAGGGACTTGAAGTAATAAGGACGGAGGGCCTCTTTCAACATCGATGCACGGTGGTTAGCCTTGGATTGCGCTCTACCGAGCGCTAAGCGTACTTAGAAGCGCGAGCGACGACTTCACACGGTAGGTGGGCGCGCGAACTGGGCAGATCC (double strand) [50(N1)50(N2)6 dinucleosome]”, the Kd was 12.5 nM in data set [1] and 5.29 nM in data set [2].
